Article doi:10.1101/2021.03.14.433363
Read-outs that look alike come from different tables or passages of the source.

Tests used:
[1] = target: T1, DRH-3 CTD (Caenorhabditis elegans, UniProt Q93413 940-1108); assay: crystal structure
T1 sequence: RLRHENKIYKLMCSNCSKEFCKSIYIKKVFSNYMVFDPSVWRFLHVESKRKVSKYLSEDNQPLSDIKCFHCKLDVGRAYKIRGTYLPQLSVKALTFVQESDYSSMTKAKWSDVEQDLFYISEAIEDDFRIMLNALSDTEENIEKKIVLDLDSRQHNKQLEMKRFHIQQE

[2] = target: T1, DRH-3 CTD; assay: fluorescence polarization
[3] = target: T2, RIG-I CTD (human, UniProt O95786 802-925); assay: limited trypsin proteolysis protection
T2 sequence: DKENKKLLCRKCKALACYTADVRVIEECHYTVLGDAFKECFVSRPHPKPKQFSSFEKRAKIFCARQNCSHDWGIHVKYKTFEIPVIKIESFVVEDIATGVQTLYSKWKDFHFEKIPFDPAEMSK

[4] = target: T2, RIG-I CTD; assay: limited trypsin proteolysis protection; remark: listed apart in the source
[5] = target: T3, DRH-3 full length (Caenorhabditis elegans, UniProt Q93413 1-1119); assay: HDX-MS
T3 sequence: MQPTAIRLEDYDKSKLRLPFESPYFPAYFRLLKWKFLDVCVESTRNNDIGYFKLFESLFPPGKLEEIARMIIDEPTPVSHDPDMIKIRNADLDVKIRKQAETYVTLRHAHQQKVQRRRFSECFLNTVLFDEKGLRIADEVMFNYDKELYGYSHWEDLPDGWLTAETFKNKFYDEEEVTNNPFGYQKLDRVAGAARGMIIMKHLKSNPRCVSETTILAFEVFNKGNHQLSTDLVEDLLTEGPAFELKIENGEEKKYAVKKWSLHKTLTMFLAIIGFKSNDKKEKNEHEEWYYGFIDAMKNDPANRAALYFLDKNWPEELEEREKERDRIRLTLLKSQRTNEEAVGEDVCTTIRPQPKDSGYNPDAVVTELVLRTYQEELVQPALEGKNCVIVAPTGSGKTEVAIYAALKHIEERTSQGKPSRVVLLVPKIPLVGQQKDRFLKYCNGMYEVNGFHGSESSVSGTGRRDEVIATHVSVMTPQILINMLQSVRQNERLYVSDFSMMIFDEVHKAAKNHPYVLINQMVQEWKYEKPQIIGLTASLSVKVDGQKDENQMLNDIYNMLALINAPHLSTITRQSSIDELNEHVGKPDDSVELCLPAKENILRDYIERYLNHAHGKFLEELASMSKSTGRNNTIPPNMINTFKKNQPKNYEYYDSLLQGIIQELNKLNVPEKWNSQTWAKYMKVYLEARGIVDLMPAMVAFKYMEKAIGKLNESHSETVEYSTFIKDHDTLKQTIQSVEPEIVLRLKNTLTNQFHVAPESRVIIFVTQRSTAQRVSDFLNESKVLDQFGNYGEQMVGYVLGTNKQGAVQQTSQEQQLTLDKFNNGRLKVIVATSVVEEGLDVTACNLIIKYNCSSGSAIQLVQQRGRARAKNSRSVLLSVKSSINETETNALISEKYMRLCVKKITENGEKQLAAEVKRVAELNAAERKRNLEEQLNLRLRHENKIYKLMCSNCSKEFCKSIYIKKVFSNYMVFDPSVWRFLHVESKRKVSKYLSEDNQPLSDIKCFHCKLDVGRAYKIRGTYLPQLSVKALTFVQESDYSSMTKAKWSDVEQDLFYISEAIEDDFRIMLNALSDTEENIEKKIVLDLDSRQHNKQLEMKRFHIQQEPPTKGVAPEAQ

B1: 5'-ppp 8-mer ssRNA (ssRNA)
RNA: GGCCGCCC
modifications: 5'-triphosphate
binding result [1]: binds

B2: FAM-labelled 5'-OH 18-mer hairpin RNA (structured_RNA)
RNA: UUUAUAUAUUAGGACCGCUCGGCGGUCCUAAUAUAUAAA
modifications: 5'-OH
Kd [2]: 325 ± 70.1 nM

B3: 5'-ppp 12-mer dsRNA with 3'-overhang (dsRNA)
RNA 1: GGCGCGCGCGCCC
RNA 2: GGCGCGCGCGCCC
modifications: 5'-triphosphate
binding result [3]: binds

B4: 5'-ppp 12-mer dsRNA (dsRNA)
RNA 1: GGCGCGCGCGCC
RNA 2: GGCGCGCGCGCC
modifications: 5'-triphosphate
binding result [4]: binds
binding result [1]: binds

B5: 3p10L (SLR10) (structured_RNA)
RNA: GGACGUACGUUUCGACGUACGUCC
modifications: 5'-triphosphate
binding result [5]: binds
